Source: article doi:10.1101/2025.06.13.659598

Target: nesprin-2G SR11-13 (spectrin repeats 11-13 of human nesprin-2) (human)
Test: co-sedimentation

FHOD1 wild-type, full length, sequence (Q9Y613 whole entry): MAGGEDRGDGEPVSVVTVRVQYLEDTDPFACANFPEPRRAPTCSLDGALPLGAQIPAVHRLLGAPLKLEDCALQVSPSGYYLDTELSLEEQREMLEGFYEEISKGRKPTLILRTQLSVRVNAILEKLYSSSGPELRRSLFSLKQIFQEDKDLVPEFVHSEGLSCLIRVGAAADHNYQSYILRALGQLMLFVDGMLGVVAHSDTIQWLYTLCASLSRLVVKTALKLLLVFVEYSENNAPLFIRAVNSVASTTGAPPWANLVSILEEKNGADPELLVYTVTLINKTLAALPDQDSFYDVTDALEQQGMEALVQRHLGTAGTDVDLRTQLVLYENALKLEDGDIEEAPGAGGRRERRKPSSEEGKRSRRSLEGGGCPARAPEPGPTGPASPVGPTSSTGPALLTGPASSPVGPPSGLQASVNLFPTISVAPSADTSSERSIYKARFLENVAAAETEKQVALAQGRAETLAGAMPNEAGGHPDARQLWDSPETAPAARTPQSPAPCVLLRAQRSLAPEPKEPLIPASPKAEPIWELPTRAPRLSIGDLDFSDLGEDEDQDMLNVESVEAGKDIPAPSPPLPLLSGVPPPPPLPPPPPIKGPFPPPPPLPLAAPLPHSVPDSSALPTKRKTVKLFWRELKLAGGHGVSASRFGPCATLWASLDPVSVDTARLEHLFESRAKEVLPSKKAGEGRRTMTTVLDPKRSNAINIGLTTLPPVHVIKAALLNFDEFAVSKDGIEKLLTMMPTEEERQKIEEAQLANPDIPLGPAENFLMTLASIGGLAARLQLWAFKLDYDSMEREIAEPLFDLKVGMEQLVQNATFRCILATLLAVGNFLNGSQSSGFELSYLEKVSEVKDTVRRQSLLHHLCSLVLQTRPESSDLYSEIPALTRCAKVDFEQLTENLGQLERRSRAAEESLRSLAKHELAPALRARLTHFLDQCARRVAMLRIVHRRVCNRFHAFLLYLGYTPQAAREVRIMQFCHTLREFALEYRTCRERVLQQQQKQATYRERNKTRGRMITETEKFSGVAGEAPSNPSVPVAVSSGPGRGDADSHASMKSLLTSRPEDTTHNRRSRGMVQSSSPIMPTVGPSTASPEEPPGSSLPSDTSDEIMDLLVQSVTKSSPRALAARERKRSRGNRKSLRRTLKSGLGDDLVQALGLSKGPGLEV

Substance: FHOD1 wild-type, full length (from UniProt Q9Y613 1-1164) (natural protein)
- stoichiometry N (scale: FHOD1 WT per SR11-13): 1.18

Substance: FHOD3 wild-type (from UniProt Q2V2M9 1-1422) (natural protein)
- stoichiometry N (scale: FHOD3 WT per SR11-13): 1.3
